Assay results as given in US10786536B2, “Cardiac neural crest cells and methods of use thereof” (VESTION, INC., priority 2013, dated 2020).
“Also recorded” adds a separate entry of the source.

What was measured:
Type in all cases: cell-based, mouse
[1] = tested on: EGFP^(+) cells (NCC^kit); assay: neonatal cKit^CreERT2/IRG myocardial explant culture with or without MSC feeders, live-cell quantification of EGFP^(+) cells
Experimental: To study the mechanisms controlling migration and proliferation in postnatal cardiac NCC^kit clones, 2-day old cKit^CreERT2/IRG neonates administered a single subcutaneous injection of 50 μl of tamoxifen. The next day, 3-day old postnatal hearts (PN3) were harvested, washed in ice-cold HBSS and cleaned from unwanted tissues under a stereomicroscope. They were then transferred in a tissue-cultured hood and, after additional washing steps with DMEM under sterile conditions, were minced into ˜1 mm^3 fragments and digested in a solution of DMEM/F12, 20% FBS, 1% penicillin/streptomycin and 200 units/ml Collagenase-Type II solution at 37° C. Following that, tissue explants were collected and washed twice with DMEM. Single tissue fragments were then picked under a stereomicroscope using a pipette, and cultured individually in single wells of gelatin-coated 24-well plates, with or without 1×10^5 MSCs feeders. Samples were fed every other day. The basic myocardial explant feeding medium consisted of DMEM/F12, 15% FBS, 1% penicillin/streptomycin, 1% β-mercaptoethanol, 1000 units/ml recombinant mouse LIF, 1 ng/ml recombinant mouse bFGF, and 0.1 mM nonessential amino acids. The impact of SCF was tested by supplementing the medium with 100 ng/ml recombinant murine SCF. For cKit neutralization, 100 ng/ml of rat anti-murine cKit antibody were supplemented to the medium. For assessing the role of Sdf1/Cxcr4, AMD3100 was supplemented to the medium, at a final concentration of 1 μM. Samples were then monitored daily, and clonal growth of EGFP^(+) cells was quantified every other day for 5-8 consecutive days, under a fluorescent microscope.
Myocardial explants from these animals were collected the following day, and were cultured in the presence or absence of MSC feeders. Swine MSCs were isolated and expanded from a single, healthy Yorkshire donor as previously described. Briefly, bone marrow was obtained from the iliac crest, and aspirates were passed through a density gradient to eliminate undesired cell types and were plated with 25 ml MEM Alpha media containing 20% fetal Bovine Serum in 162 cm^2 culture flasks. At 5-7 days after plating, non-adherent cells were washed away during medium changes and the remaining, plastic adherent, purified MSC population was expanded in culture. All used cells were harvested when they reached 80-90% confluence at passage 3-4, and inactivated for 3 h at 37° C. with 10 μg/ml of mitomycin C. Inactivated porcine MSC feeders were collected by trypsinization and cryopreserved in liquid nitrogen until use. For all experiments, MSCs feeders were seeded at a concentration of 2×10^5 MSCs/ml a day before use. The responses of EGFP^(+) cells under different culture conditions were monitored daily and quantified via live-cell fluorescence imaging every other day.
The effect of MSCs on NCC^kit migration was explored because recent studies reveal a chemotactic role of Sdf1/Cxcr4 axis on NCCs. Myocardial explant cultures were generated, as described above, and screened the emergence of EGFP^(+) cells in response to AMD3100, an inhibitor of the Sdf1/Cxcr4 axis. […] Thus, Sdf1/Cxcr4 axis regulates migration and differentiation of NCC^kit.

[2] = tested on: iPSC^kit-derived embryoid bodies; assay: in-vitro lineage tracing during cardiogenic differentiation of iPSC^kit-derived embryoid bodies pulsed with 4-OH tamoxifen
Description: First, to specifically address the relationship between CNC^kit and the cKit^+/Nkx2.5^+ lineage purified from mouse ES and iPSCs-derived cardiac mesoderm, iPSCs from cKit^CreERT2/IRG adult tail-tip fibroblasts (iPSC^kit) were established. iPSC^kit stably express DsRed with no leakage of EGFP (<30 passages). As with the cKit^CreERT2/IRG mice DsRed is irreversibly replaced by EGFP in iPSC^kit-derivatives upon Cre-mediated recombination, which occurs in response to treatment with 4-OH tamoxifen. […] Thus, iPSC^kit are suitable for in-vitro lineage tracing of cKit-expressing cells. Cardiomyocyte differentiation was induced by treatment of iPSC^kit-derived embryoid bodies (EB) with ascorbic acid as previously described (FIG. 17). Successful differentiation was reflected in the development of spontaneously contracting cardiomyocytes. To genetically trace whether any of the generated cardiomyocytes were progeny of cKit^+ progenitors, EBs were pulsed with 4-OH tamoxifen at selected time-points during differentiation and monitored the emergence of spontaneously beating EGFP^+ derivatives (FIG. 17). Indeed, EGFP^+ derivatives were detected in ˜45% of the spontaneously beating EBs, confirming previous findings that mouse pluripotent stem cells can be consistently directed to generate cardiomyocytes via a cKit^+ cardiomyocyte progenitor lineage (data not shown). […]

[3] = tested on: iPSC^kit; assay: quantitative gene-expression analysis during cardiogenic differentiation of iPSC^kit; conditions: noggin-treated iPSC^kit

c1cc(CN2CCCNCCNCCCNCC2)ccc1CN1CCCNCCNCCCNCC1 [AMD3100]
differentiation of EGFP^(+) cells into spontaneously beating/contracting cells ([1]; AMD3100 1 μM, compared to non-AMD3100 treated groups): massive differentiation into spontaneously contracting cardiomyocytes; also recorded: dramatic increase in the numbers of spontaneously beating EGFP^(+) cells | migration of EGFP^(+) cells from the cultured explants ([1]; explants on MSC feeders): blocked the migration of EGFP^(+) cells; also recorded: blocking cell migration | number / abundance of EGFP^(+) cells ([1]; explants on MSC feeders, compared to MSCs+SCF group, AMD3100 1 μM, anti-cKit antibody 100 ng/ml): significant reduction in the abundance of EGFP^(+) cells; also recorded: significantly decreased the number of EGFP^(+) cells

O=C1O[C@H]([C@@H](O)CO)C(O)=C1O [ascorbic acid]
spontaneously beating EBs with EGFP^+ derivatives ([2]; cardiomyocyte differentiation induced by ascorbic acid): ~45%

B1: SCF: recombinant murine SCF supplemented to the medium at 100 ng/ml (protein)
chain: KEICGNPVTDNVKDITKLVANLPNDYMITLNYVAGMDVLPSHCWLRDMVIQLSLSLTTLLDKFSNISEGLSNYSIIDKLGKIVDDLVLCMEENAPKNIKESPKRPETRSFTPEEFFSIFNRSIDAFKDFMVASDTSDCVLSSTLGPEKDSRVSVTKPFMLPPVA
increase in proliferative capacity of EGFP^(+) cells ([1]; 100 ng/ml recombinant murine SCF, MSCs present): 3.5 fold | proliferation of EGFP^(+) cells ([1]; SCF in the absence of MSCs): no significant differences were detected | migration of EGFP^(+) cells from the cultured explants ([1]; explants on MSC feeders): neither SCF nor cKit affected EGFP^(+) cell migration

B2: noggin: BMP antagonist used for noggin-mediated antagonism of BMP signaling (protein, UniProt Q13253 28-232, looked up)
Noggin: QHYLHIRPAPSDNLPLVDLIEHPDPIFDPKEKDLNETLLRSLLGGHYDPGFMATSPPEDRPGGGGGAAGGAEDLAELDQLLRQRPSGAMPSEIKGLEFSEGLAQGKKQRLSKKLRRKLQMWLWSQTFCPVLYAWNDLGSRFWPRYVKVGSCFSKRSCSVPEGMVCKPSKSVHLTVLRWRCQRRGGQRCGWIPIQYPIISECKCSC
expression of the epicardial progenitor cell markers WT1 and Tbx18 [3]: transiently repressed | expression of cKit, Wnt1, Snai2, Pax3 and MITF-H ([3]; selected time-points): dramatic upregulation | generation of EGFP^+ cardiomyocytes ([2]; BMP antagonism of iPSC^kit, EBs pulsed with 4-OH tamoxifen): resulted in the generation of EGFP^+ cardiomyocytes
